Assay results from US20200377563A1 (Pieris, published 2020).
Positions count from the first letter of the chain named. “And” between values parts separate entries of the source, which are not always exact repeats. Identical values can stand only once. Like-named read-outs stand apart in the source and are kept apart here.

B1: benchmark antibody 2 (antibody, human IgG4, kappa, V domains shown)
VH: QVQLVQSGAEVKKPGSSVKVSCKASGYSFTDYHISWVRQAPGQGLEWMGVINPEYGTTDYNQRFKGRVTITADESTSTAYMELSSLRSEDTAVYYCARYDYFTGTGAYWGQGTLVTVSS
VL: DIVMTQTPLSLSVTPGQPASISCRSSQSLKHSRGNTFLHWYLQKPGQSPQLLIYKVSNRFIGVPDRFSGSGSGTDFTLKISRVEAEDVGVYYCSQSTHYPFTFGQGTKLEIKR
B2: negative control SEQ ID NO: 43 (other)
chain: QDSTSDLIPAPPLSKVPLQQNFQDNQFQGKWYVVGLAGNAILREDKDPQKMYATIYELKEDKSYNVTSVLFRKKKCDYWIRTFVPGCQPGEFTLGNIKSYPGLTSYLVRVVSTNYNQHAMVFFKKVSQNREYFKITLYGRTKELTSELKENFIRFSKSLGLPENHIVFPVPIDQCIDG
B3: mouse IL-23 (ligand)
chain 1: VPRSSSPDWAQCQQLSRNLCMLAWNAHAPAGHMNLLREEEDEETKNNVPRIQCEDGCDPQGLKDNSQFCLQRIRQGLAFYKHLLDSDIFKGEPALLPDSPMEQLHTSLLGLSQLLQPEDHPRETQQMPSLSSSQQWQRPLLRSKILRSLQAFLAIAARVFAHGAATLTEPLVPTA
chain 2: MWELEKDVYVVEVDWTPDAPGETVNLTCDTPEEDDITWTSDQRHGVIGSGKTLTITVKEFLDAGQYTCHKGGETLSHSHLLLHKKENGIWSTEILKNFKNKTFLKCEAPNYSGRFTCSWLVQRNMDLKFNIKSSSSSPDSRAVTCGMASLSAEKVTLDQRDYEKYSVSCQEDVTCPTAEETLPIELALEARQQNKYENYSTSFFIRDIIKPDPPKNLQMKPLKNSQVEVSWEYPDSWSTPHSYFSLKFFVRIQRKKEKMKETEEGCNQKGAFLVEKTSTEVQCKGGNVCVQAQDRYYNSSCSKWACVPCRVRS
notes: also called mIL-23
B4: cynomolgus monkey IL-17A (ligand)
chain: GIAIPRNSGCPNSEDKNFPRTVMVNLNIHNRNTSTNPKRSSDYYNRSTSPWNLHRNEDPERYPSVIWEAKCRHLGCVKADGNVDYHMNSVPIQQEILVLRREPRHCPNSFRLEKILVSVGCTCVTPIVHHVA
notes: also called cIL-17A
B5: benchmark 3 (antibody, human IgG1, kappa, V domains shown)
VH: QVQLVQSGAEVKKPGASVKVSCKVSGKTFWSYGINWVRQAPGKGLEWMGYIYIGTGYTEPNPKYKGRVTMTEDTSTDTAYMELSSLRSEDTAVYYCATIGGYYGNFDQWGQGTTVTVSS
VL: DVVMTQSPLSLPVTLGQPASISCRSSQSLLISGGKTYLNWFQQRPGQSPRRLIYLVSKLDQGVPDRFSGSGSGTDFTLKISRVEAEDVGVYYCWQGTYFPLTFGQGTKLEIKR
B6: fusion protein of SEQ ID NO: 7 (designed binder)
chain: QDSTSDLIPAPPLSKVPLQQNFQDNQFHGKWYVVGEAGNLLLREDKDPRKMTATIYELKEDKSYDVTRVEFGAKTYKYQIGTFVPGSQPGEFTLGGIESMPGMTSFLVRVVSTNYNQHAIVFFKYVYQNREYFEITLYGRTKELTSELKENFIRFSKSLGLPENHIVFPVPIDQAIDGSGGGGSLAEAKEAANAELDSYGVSDFYKRLIDKAKTVEGVEALKDAILAALPSAWSHPQFEK
B7: marmoset IL-17A (ligand)
chain: GIASPQNPGCPNAEDKNFPRTVMVNLNIRNRNTNSKRASDYYNRSSSPWNLHRNEDPERYPSVIWEAKCRHLGCVDADGNVDYHMNSVPIQQEILVLRREPRHCTNSFRLEKMLVSVGCTCVTPIVRHVA
notes: also called marmoset monkey IL-17A
B8: human IL-23 (ligand)
chain 1: RAVPGGSSPAWTQCQQLSQKLCTLAWSAHPLVGHMDLREEGDEETTNDVPHIQCGDGCDPQGLRDNSQFCLQRIHQGLIFYEKLLGSDIFTGEPSLLPDSPVGQLHASLLGLSQLLQPEGHHWETQQIPSLSPSQPWQRLLLRFKILRSLQAFVAVAARVFAHGAATLSP
chain 2: IWELKKDVYVVELDWYPDAPGEMVVLTCDTPEEDGITWTLDQSSEVLGSGKTLTIQVKEFGDAGQYTCHKGGEVLSHSLLLLHKKEDGIWSTDILKDQKEPKNKTFLRCEAKNYSGRFTCWWLTTISTDLTFSVKSSRGSSDPQGVTCGAATLSAERVRGDNKEYEYSVECQEDSACPAAEESLPIEVMVDAVHKLKYENYTSSFFIRDIIKPDPPKNLQLKPLKNSRQVEVSWEYPDTWSTPHSYFSLTFCVQVQGKSKREKKDRVFTDKTSATVICRKNASISVRAQDRYYSSSWSEWASVPCS
notes: Heterodimer of p19 and p40; Biotinylated in the ELISA formats; also called hIL-23; hIL23
B9: lipocalin mutein SEQ ID NO: 46 (designed binder)
chain: QDSTSDLIPAPPLSKVPLQQNFQDNQFHGKWYVVGEAGNLLLREDKDPRKMTATIYELREDKSYDVTRVEFGVKTYKYQIGTFVPGSQPGEFTLGGIKSMPGMTSFLVRVVSTDYNQHAMVFFKYVYQNREYFEITLYGRTKELTSELKENFIRFSKSLGLPENHIVFPVPIDQAIDG
B10: lipocalin mutein SEQ ID NO: 45 (designed binder)
chain: B9 chain with L41I, R59K, Y76R, Q79R, D114N

What was measured:
[1] = target: human IL-17A (human, UniProt Q16552 24-155, limits assumed); test: cell-based or functional assay
[2] = target: B8; test: competition ELISA (MSD): biotinylated hIL-23 tracer pre-incubated with the titrated control, free hIL-23 captured on coated soluble hIL-23R
Method: (§1) All incubation steps were performed with shaking 300 rpm, and the plate was washed after each incubation step with 80 μl PBS/0.05% Tween 20 for five times using a Biotek EL405 select CW washer. […] After washing, the receptor-coated wells were blocked with 60 μl PBS-T/BSA for 1 h at room temperature.
(§2) After washing, 60 μl MSD Read Buffer T (2×) was added to each well and the plate was read within 15 min.
(§3) The resulting ECL signal was measured using the SECTOR Imager 2400 (Meso Scale Discovery).

[3] = target: T1, lipocalin mutein of SEQ ID NO: 2; test: solution competition ELISA: 0.5 nM SEQ ID NO: 2 pre-incubated with varied ligand, free mutein captured on immobilised biotinylated hIL-23
T1 construct: Mutein of human lipocalin 2 (NGAL); Also used as negative control in the IL-17A cell assay; also called hNGAL mutein

[4] = target: T2, lipocalin mutein of SEQ ID NO: 1; test: solution competition ELISA: 0.25 nM SEQ ID NO: 1 pre-incubated with varied ligand, free mutein captured on immobilised biotinylated hIL-17A
T2 construct: Mutein of human tear lipocalin; also called Tlc mutein
T2 sequence (chain, as listed by the source): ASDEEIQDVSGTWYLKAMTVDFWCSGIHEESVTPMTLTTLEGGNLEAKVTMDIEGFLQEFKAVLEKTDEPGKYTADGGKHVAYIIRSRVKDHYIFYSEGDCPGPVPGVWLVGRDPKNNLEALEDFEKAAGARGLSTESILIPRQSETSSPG
Method: In the following detailed experimental protocol, incubation and washing steps were performed as described above in the competition ELISA protocol. A 384-well plate suitable for fluorescence measurements (Greiner FLUOTRAC™ 600, black flat bottom, high-binding) was coated with 20 μl of Neutravidin at a concentration of 5 μg/ml in PBS over night at 4° C. After washing, the Neutravidin-coated wells were blocked with 100 μl blocking buffer (PBS-T/BSA) for 1h at room temperature.

[5] = target: B8; test: cell-based or functional assay
[6] = target: B8; test: SPR (Biacore T200), biotinylated binder captured on CAP chip, hIL-23 as analyte, buffer with 350 mM NaCl
Method: To this end, undiluted Biotin CAPture Reagent was applied at a flow rate of 2 μL/min for 300 s. […] The reference channel was loaded with Biotin CAPture Reagent only.
Applying a flow rate of 30 μL/min, a single cycle kinetics approach was used with a sample contact time of 300 s and a dissociation time of 4000 s or 7200 s. After ligand immobilization, all 5 concentrations were applied consecutively in ascending order before the dissociation was monitored. All measurements were performed at 25° C.

[7] = target: B8; test: competition ELISA (MSD), biotinylated hIL-23 pre-incubated with binder, free hIL-23 captured on coated hIL-23R
Method: as §1, §2, §3

[8] = target: B8; test: SPR (Biacore T200), hIL-23 amine-coupled on chip, mutein as analyte
[9] = target: B8; test: competition ELISA (MSD), biotinylated hIL-23 pre-incubated with binder, free hIL-23 captured on coated hIL-23R; remark: listed apart in the source

## B1
[1]
  IL-17A-induced G-CSF secretion in U87-MG cells, EC50, average: 0.12 nM
  IL-17A-induced G-CSF secretion in U87-MG cells, EC50, single experiment: 0.14 nM and 0.1 nM

## B2
[2]
  binding result: no binding

## B3
[3]
  IC50: 0.5 nM

## B4
[4]
  IC50: 0.1 nM

## B5
[5]
  hIL-23-induced proliferation of Ba/F3 cells with hIL-23R and hIL-12Rβ1, EC50, average: 3 nM
  hIL-23-induced proliferation of Ba/F3 cells, EC50, single experiment: 3.1 nM and 2.9 nM

## B6
[6]
  Kd: 2.4 nM
[7]
  IC50: 1.11 nM

## B7
[4]
  IC50: 0.2 nM

## B8
[3]
  IC50: 0.9 nM

## B9
[5]
  hIL-23-induced proliferation of Ba/F3 cells with hIL-23R and hIL-12Rβ1, EC50: 5.4 nM
[8]
  Kd: 0.6 nM
  koff: 4e-05 s⁻¹
  kon: 70000 M⁻¹ s⁻¹
[9]
  IC50: 1.1 nM

## B10
[5]
  hIL-23-induced proliferation of Ba/F3 cells with hIL-23R and hIL-12Rβ1, EC50: 3.7 nM
[8]
  Kd: 0.1 nM
  koff: 3e-05 s⁻¹
  kon: 300000 M⁻¹ s⁻¹
[9]
  IC50: 0.1 nM
